Data reported in PMC5001929 (Cell reports, 2016).

T1: Gremlin-2 (UniProt O88273 22-168)
T1 sequence: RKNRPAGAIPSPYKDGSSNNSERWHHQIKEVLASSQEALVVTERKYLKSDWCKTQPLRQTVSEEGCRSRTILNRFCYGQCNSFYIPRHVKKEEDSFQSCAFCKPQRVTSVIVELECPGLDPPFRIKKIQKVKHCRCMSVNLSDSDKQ


Target: T1, Gremlin-2
Assay: SPR

| Binder | Kd [nM] |
| --- | --- |
| GDF5 (ligand, UniProt P43026 382-501, looked up) APLATRQGKRPSKNLKARCSRKALHVNFKDMGWDDWIIAPLEYEAFHCEGLCEFPLRSHLEPTNHAVIQTLMNSMDPESTPPTCCVPTRLSPISILFIDSANNVVYKQYEDMVVESCGCR | 146 |
| BMP2 (ligand, UniProt P12643 283-396, looked up) QAKHKQRKRLKSSCKRHPLYVDFSDVGWNDWIVAPPGYHAFYCHGECPFPLADHLNSTNHAIVQTLVNSVNSKIPKACCVPTELSAISMLYLDENEKVVLKNYQDMVVEGCGCR | 9 |
